Data on two molecules can be found in patent US20150368616A1, “METHODS FOR INDUCTION OF CELL FATES FROM PLURIPOTENT CELLS” (THE CLEVELAND CLINIC FOUNDATION, priority 2013, published 2015).

A value given as a limit tells only on which side of the number the result lay.

Assay [1] deals with stage 4 forward directed differentiating hES culture. In words: Wnt3a at stage 4 of directed differentiation, RT-qPCR and immunohistochemistry. It is filed as cell-based, human. The procedure:
Panel A—Schematic representation of the two different directed differentiation protocols used throughout this series of experiments. The only difference between the two different differentiation protocols is the inclusion of Wnt3a at stage 4 of the directed differentiation protocol as illustrated. Control Cultures and cultures which had Wnt3a administrated at stage 4 were incubated an additional 4 days in maturation medium before RNA extractions and immunohistochemical analysis were performed. Panel B—An RT-qPCR analysis of the two differing conditions. Transcripts assayed are the endodermal marker FoxA2, the pancreatic progenitor marker Pdx1, the TrPC marker Nkx6.1 and the two endocrine markers Glucagon and Insulin. Note two different primer sets were used for insulin.
Panel C-J—Immunohistochemical analysis of stage 5 (day 4) cultures differentiated in the presence and absence of Wnt3a at stage 4. Panels CD and E-F compare the relative levels of C-peptide and Pdx1 respectively between the two differing differentiation protocols. Panels G-J show the combined expression of C-peptide and Pdx1 at both 10× magnification (panels G-H) and 20× Magnification (panels I-J).
To investigate the role of a canonical Wnt input on a PDX1+ progenitor population, Wnt3a was administered to a stage 4 forward directed differentiating hES culture. […] The relative expression of Pdx1 was increased over ˜5 fold over stage 4 cultures lacking the canonical input and relative transcript levels reached ˜3000 fold over hES controls. While Nkx6.1 levels were modest in comparison, only reaching a ˜3.3 fold increase over the stage 4 cultures lacking the canonical input and a relative transcript fold increase of ˜200 over hES controls. […] Both Glucagon and Insulin relative transcript levels were ˜2 fold greater in stage 4 cultures treated with Wnt3a as compared to stage 4 cultures lacking the canonical Wnt drive (FIG. 62 panel B). While there was a ˜5000 fold increase in Glucagon transcript levels and a ˜2500 fold increase in Insulin transcript levels when compared to hES levels. As a means to confirm the accuracy of the relative Insulin transcript levels two different set of primers were used and both primer sets produced similar results. In addition immunohistochemical analysis of these two different reactions was used to confirm the transcript analysis.
(In general: In qPCR the cycle at which signal appears reflects the starting amount.)

For another assay, the system named is pluripotent cultures. In words: Defined (cell conditioned) medium versus Pan-CM, 5 day induction with serum variations and Wnt3a. The assay is classed as cell-based, human. The note with it: Wnt3a on the first day of the induction, 5 day induction period. The procedure: FIG. 44 (A-B)—Cell conditioned medium improves over the Pan-CM induction of pluripotent cells. Pluripotent cultures were passaged onto matrigel and maintained in the presence of MEF conditioned medium for 3 days to maintain pluripotency. They were next subjected to either Pan-CM or our cell conditioned medium supplemented with either 2% KO serum replacer or low concentrations of FBS as defined in panel A. The addition of Wnt3a on the initial day of differentiation was also assayed. […] Note the occurrence of the trunk progenitor cell is best defined with the loss of NKX6.1.
We next explored the ability of our defined medium informed from the transcriptome and sectretome analysis of the Pan-MEF cultures to induce the differentiation of pluripotent cells towards pancreatic fates. This was performed in short term cultures with incubation periods only lasting 5 days (FIG. 43).

A further assay concerns H1 hES cultures. Kind of assay: Pan-CM induction with reduced serum levels and Wnt3a on the first day, transcript analysis. It is filed as cell-based, human. From the text: FIG. 16 (A-B)—Reduction of serum levels increases endocrine formation. Pluripotent cultures were passaged onto matrigel and maintained in MEF-conditioned medium for three days before being induced to differentiate by exposure to Pan-CM. Three different conditions were used as outlined in panel A. In the first condition Pan-CM was supplemented with Wnt3a on the first day followed by a 0.2% concentration of FBS for the rest of the reaction. In the second condition Pan-CM was supplemented with 0.2% FBS for the second day on. In the third condition Pan-CM was supplemented with 2% KO serum replacer.
The Pan-CM mediated induction of insulin producing cells from the H1 hES cultures is improved when low concentrations of serum is used. […] Finally it was noted that lower levels of serum reduced to levels of MEOX1 (a gene associated with the mesodermal lineage) observed in these cultures.

The test system of another assay is Ngn3. In words: Mutational series of Ngn3 in the HepG2 stability assay. The assay is classed as cell-based. From the text: FIG. 66 (A-B) illustrates a mutational series of Ngn3, designed to stabilize the protein. A. listing of site directed point mutations. B. Testing of five substitution mutants.
Combined, these analyses served to focus us on the presence of lysines in the Helix 1/loop region and highlighted the importance of N-terminal acetylation protection as well. Of note, The K^118LTK^121 motif in the loop is completely conserved in Ngn3 in vertebrates, including teleosts and amphibians, and also between Ngn family members. Our approach to stabilizing Ngn3 is therefore to create an exhaustive point-substitution series of K>R to cover the entire protein (FIG. 66A), and also create deletion mutants of the N-, and C-termini flanking the bHLH domain. Because K121 is completely conserved in the bHLH family group, and positioned so that it aligns with the Helix 1 axis, this residue is likely critical for the folding/binding dynamics of the HLH domain, and mutation of this may likely impact DNA binding/function. Such constraints are not evident for K^118. We will also substitute the T120 residue in the KLTK loop to a Glutamic acid (E) to mimic a possible stabilizing phosphorylation event, which, based on phylogenetic comparisons to MASH1 may be of importance. […]

[2] abbreviates: Wnt3A added to Pan-CM on the first day, then 0.2% FBS.

B1: Wnt3a: canonical Wnt ligand (protein, UniProt P56704 19-352, looked up)
Protein Wnt-3a: SYPIWWSLAVGPQYSSLGSQPILCASIPGLVPKQLRFCRNYVEIMPSVAEGIKIGIQECQHQFRGRRWNCTTVHDSLAIFGPVLDKATRESAFVHAIASAGVAFAVTRSCAEGTAAICGCSSRHQGSPGKGWKWGGCSEDIEFGGMVSREFADARENRPDARSAMNRHNNEAGRQAIASHMHLKCKCHGLSGSCEVKTCWWSQPDFRAIGDFLKDKYDSASEMVVEKHRESRGWVETLRPRYTYFKVPTERDLVYYEASPNFCEPNPETGSFGTRDRTCNVSSHGIDGCDLLCCGRGHNARAERRREKCRCVFHWCCYVSCQECTRVYDVHTCK
In the case of B1, in assay [1], the “Glucagon and Insulin relative transcript levels compared to stage 4 cultures lacking the canonical Wnt drive” value is on record as ~2 fold; the “Glucagon transcript levels increase compared to hES levels” value is given as ~5000 fold; the “Insulin transcript levels increase compared to hES levels” value is recorded as ~2500 fold; the “Nkx6.1 increase over the stage 4 cultures lacking the canonical input” value is recorded as ~3.3 fold. In assay [1], the “Nkx6.1 relative transcript fold increase over hES controls” value is ~200 fold, the “Pdx1 relative expression over stage 4 cultures lacking the canonical input” value is recorded as > 5 fold and the “Pdx1 relative transcript levels over hES controls” value is given as ~3000 fold. Besides, the NKX6.1 expression entry in the assay on pluripotent cultures is given as “improved”. Besides, in the assay on H1 hES cultures (setting [2]), the HNF1-B up regulation is reported as ~55 × and the HNF6 up regulation is ~85 ×. Besides, the insulin transcript levels result with H1 hES cultures (Wnt3a on the first day of differentiation in Pan-CM) is “comparable to the Pan-CM induction with 2% KO serum replacer”.

B2: K86/87 to Arginines: Ngn3 substitution mutant, lysines K86/87 replaced by Arginines, stabilized Ngn3 (protein, UniProt P70661 1-214, looked up, variant K86R K87R)
Neurogenin-3: MAPHPLDALTIQVSPETQQPFPGASDHEVLSSNSTPPSPTLIPRDCSEAEVGDCRGTSRKLRARRGGRNRPKSELALSKQRRSRRRRANDRERNRMHNLNSALDALRGVLPTFPDDAKLTKIETLRFAHNYIWALTQTLRIADHSFYGPEPPVPCGELGSPGGGSNGDWGSIYSPVSQAGNLSPTASLEEFPGLQVPSSPSYLLPGALVFSDFL
For the molecule B2, the Ngn3 protein stability result in the assay with Ngn3 is listed as “lead to stabilization”.
